Assay results reported in publication PMC5234717 (Journal of Lipid Research, 2016).

What was measured:
S1PL2025 [1] = biological target: T1, S1PL2025 (Burkholderia pseudomallei, UniProt Q63IP4)
T1 construct: gene BPSS2025

S1PL2025 [2] = biological target: T1, S1PL2025; remark: listed apart in the source
CCCCCCCCCCCCC/C=C/C=O = test: purified protein; conditions: pH 7.5; 37.0 °C

T1 sequence (Q63IP4 35-507 limits assumed): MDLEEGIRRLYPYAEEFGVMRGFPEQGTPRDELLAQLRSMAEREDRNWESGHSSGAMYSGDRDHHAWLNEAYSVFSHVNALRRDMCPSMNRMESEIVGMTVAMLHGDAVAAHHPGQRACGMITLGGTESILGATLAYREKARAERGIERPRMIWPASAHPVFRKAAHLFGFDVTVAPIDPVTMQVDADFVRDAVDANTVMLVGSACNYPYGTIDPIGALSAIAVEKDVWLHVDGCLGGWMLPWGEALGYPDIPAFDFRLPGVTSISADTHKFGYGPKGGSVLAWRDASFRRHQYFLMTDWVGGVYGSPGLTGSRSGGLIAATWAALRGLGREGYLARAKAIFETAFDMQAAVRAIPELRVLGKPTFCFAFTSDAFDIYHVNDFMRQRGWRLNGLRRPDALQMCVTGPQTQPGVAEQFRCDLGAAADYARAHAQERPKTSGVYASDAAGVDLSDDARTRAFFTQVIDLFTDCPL

NCCOP(=O)(O)O [PE]
UV-vis spectroscopy of PLP (S1PL2025 [1]): UV-vis analysis of the binding of S1P and PE to the S1PL2025 enzyme

Cc1ncc(COP(=O)(O)O)c(C=O)c1O [PLP]
UV-vis spectroscopy (S1PL2025 [2]): A similar PLP binding spectrum was observed with S1PL2025

FALDH (Homo sapiens)
Km (CCCCCCCCCCCCC/C=C/C=O): 19.4 ± 3.2 µM
Vmax (CCCCCCCCCCCCC/C=C/C=O): 0.315 µmol/min/mg
kcat/Km (CCCCCCCCCCCCC/C=C/C=O): 11300 M⁻¹ s⁻¹
